Results: US20240116985A1 (published 2024)
Starred links: 1 amine or outer side, 2 acyl side, 3 side chain; linkers in the order of their positions; H or OH if unused. Positions of bridges follow the written chain, without caps; N, C: chain ends. Non-standard residues stand in square brackets, D forms with d. Primed or numbered codes have the meaning given here. PyrS2″ = (S)-3-amino-1-((pent-4-en-1-yloxy)carbonyl)pyrrolidine-3-carboxylic acid (stapling residue), C=CCCCOC(=O)N1CC[C@@](N[*:1])(C(=O)[*:2])C1; B5(17) = 2,2-bis(4-pentenyl)glycine = 2-amino-2-(pent-4-en-1-yl)hept-6-enoic acid, stitching residue, C=CCCCC(CCCC=C)(N[*:1])C(=O)[*:2]; B5(4) = 2,2-bis(4-pentenyl)glycine = 2-amino-2-(pent-4-en-1-yl)hept-6-enoic acid (stitching residue), C=CCCCC(CCCC=C)(N[*:1])C(=O)[*:2]; Phe(2-Cl) = N[C@@H](Cc1ccccc1Cl)C(=O)O; Bta = N[C@@H](Cc1csc2ccccc12)C(=O)O; αAllylPro = C=CC[C@@]1(C(=O)O)CCCN1; tBuAla = CC(C)(C)C[C@H](N)C(=O)O; S8 = C=CCCCCCC[C@](C)(N)C(=O)O; Leu(ol) = CC(C)C[C@H](N)CO

T1: B-cat-Halo (beta-catenin HaloTag NanoBRET construct expressed in HEK293 cells) (UniProt P35222 1-781)
T1 sequence (looked up): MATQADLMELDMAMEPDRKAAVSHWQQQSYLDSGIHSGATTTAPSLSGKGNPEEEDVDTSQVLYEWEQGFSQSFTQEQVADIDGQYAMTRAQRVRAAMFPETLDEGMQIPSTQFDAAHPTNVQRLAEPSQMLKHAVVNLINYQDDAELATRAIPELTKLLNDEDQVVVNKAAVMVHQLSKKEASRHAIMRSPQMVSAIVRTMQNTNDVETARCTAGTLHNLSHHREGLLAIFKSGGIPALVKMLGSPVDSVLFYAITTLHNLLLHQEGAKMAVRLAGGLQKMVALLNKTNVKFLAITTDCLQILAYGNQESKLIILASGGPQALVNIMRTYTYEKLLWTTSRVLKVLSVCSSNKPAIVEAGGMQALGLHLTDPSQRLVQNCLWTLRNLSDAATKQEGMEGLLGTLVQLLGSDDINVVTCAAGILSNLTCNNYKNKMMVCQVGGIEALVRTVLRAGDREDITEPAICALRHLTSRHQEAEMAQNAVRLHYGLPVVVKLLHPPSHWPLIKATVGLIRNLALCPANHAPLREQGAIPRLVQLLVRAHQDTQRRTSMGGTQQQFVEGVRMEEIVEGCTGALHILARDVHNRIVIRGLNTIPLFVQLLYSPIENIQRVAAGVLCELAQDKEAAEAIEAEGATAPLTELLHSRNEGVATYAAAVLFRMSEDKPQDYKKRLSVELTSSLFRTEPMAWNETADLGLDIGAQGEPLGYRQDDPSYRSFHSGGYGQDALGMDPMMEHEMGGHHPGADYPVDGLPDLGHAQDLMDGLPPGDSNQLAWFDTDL

T2: beta-catenin in DLD1 TCF/LEF luciferase reporter cells (UniProt P35222 1-781)
T2 sequence (looked up): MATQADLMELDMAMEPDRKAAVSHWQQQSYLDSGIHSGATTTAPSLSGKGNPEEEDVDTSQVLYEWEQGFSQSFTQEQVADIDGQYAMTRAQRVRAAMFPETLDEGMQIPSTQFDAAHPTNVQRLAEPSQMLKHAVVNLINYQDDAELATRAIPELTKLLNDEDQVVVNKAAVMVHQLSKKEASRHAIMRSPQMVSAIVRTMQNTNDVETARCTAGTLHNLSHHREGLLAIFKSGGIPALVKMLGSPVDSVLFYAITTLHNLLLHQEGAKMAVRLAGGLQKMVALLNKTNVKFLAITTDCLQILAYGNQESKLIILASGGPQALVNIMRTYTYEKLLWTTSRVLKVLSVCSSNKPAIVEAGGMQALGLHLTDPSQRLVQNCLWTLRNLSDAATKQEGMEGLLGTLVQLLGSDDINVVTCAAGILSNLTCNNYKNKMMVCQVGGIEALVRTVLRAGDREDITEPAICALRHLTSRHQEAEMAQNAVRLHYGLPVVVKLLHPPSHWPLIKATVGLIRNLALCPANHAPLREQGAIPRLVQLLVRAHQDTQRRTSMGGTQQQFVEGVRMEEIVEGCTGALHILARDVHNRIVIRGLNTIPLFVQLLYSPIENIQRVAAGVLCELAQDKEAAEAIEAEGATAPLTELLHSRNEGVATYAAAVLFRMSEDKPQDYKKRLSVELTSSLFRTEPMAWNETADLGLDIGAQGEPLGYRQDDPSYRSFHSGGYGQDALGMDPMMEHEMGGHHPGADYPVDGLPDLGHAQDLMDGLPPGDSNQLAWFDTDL

T3: B-cat-Halo (UniProt P35222 1-781, HaloTag NanoBRET 618 Ligand bound in the assay)
T3 construct: Transfected into HEK293 cells for the NanoBRET assay; also called beta-catenin HaloTag NanoBRET construct; not shown: HaloTag
T3 sequence (looked up): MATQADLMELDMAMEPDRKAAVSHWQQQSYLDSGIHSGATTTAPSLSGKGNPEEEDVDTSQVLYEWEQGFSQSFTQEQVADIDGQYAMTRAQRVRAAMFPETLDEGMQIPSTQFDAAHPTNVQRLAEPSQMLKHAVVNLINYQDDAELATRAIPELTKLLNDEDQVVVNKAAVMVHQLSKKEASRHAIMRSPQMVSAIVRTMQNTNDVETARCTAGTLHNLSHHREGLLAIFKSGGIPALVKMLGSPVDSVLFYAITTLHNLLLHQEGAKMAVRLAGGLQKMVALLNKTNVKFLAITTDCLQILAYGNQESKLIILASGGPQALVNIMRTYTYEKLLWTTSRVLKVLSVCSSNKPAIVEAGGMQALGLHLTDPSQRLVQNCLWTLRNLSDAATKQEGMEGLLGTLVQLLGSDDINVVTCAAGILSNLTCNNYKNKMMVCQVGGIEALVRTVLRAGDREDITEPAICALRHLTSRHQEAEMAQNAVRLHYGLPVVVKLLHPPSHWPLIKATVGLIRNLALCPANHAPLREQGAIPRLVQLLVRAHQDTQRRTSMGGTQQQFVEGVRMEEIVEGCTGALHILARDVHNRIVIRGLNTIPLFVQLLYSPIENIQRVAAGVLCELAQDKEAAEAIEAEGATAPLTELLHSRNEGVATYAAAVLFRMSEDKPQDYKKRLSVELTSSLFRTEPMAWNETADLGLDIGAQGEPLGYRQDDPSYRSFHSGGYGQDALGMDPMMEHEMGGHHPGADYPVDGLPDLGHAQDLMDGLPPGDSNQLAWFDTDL

T4: full-length beta-Catenin (Uniprot ID P35222) (Homo sapiens (Human), UniProt P35222 1-781)
T4 construct: also called bCat; B-Catenin
T4 sequence: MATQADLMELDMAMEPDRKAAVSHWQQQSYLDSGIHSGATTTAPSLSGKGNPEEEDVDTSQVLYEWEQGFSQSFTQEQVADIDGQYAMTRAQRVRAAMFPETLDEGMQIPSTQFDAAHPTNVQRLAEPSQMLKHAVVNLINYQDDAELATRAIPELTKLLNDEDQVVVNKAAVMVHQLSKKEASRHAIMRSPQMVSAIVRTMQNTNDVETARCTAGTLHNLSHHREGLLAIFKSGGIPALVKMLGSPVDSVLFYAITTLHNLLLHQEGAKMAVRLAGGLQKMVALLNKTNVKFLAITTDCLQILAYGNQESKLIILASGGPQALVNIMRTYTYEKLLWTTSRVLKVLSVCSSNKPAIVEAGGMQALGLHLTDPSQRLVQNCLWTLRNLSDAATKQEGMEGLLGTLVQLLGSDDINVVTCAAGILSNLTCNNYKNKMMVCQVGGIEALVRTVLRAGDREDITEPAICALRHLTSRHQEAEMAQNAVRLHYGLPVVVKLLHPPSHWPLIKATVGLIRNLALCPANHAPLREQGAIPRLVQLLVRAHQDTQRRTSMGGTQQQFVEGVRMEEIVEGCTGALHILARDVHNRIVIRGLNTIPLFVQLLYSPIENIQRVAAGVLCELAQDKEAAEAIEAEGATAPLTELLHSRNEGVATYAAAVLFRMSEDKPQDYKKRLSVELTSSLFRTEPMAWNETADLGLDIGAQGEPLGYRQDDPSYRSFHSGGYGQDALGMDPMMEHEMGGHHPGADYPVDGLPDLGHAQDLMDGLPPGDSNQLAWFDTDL


Experiments:
[1] = target: T1, B-cat-Halo (beta-catenin HaloTag …); assay: cell-based or functional assay
[2] = target: T2, beta-catenin in DLD1 TCF/LEF luciferase …; assay: cell-based or functional assay
B-cat-Halo = target: T3, B-cat-Halo; assay: NanoBRET Abs IC50 in HEK293 cells; B-cat-Halo, competitor TCF4-Luc
[3] = target: T4, full-length beta-Catenin (Uniprot ID …); assay: fluorescence polarization competition; full-length beta-catenin, competitor 5FAM-TCF4(10-53) probe
Method in brief: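 Fluorescence polarization was read in duplicate after the plate sat 60 minutes at 20° C. shielded from light. Values come from fitting to a 1:1 binding model with hill slope.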

Row | NanoBRET Abs IC50 [1] [µM] | DLD1 reporter assay Abs IC50 [2] [µM] | IC50 (B-cat-Halo) [µM] | IC50 [3] [µM] | Binder
1 | > 20 | 17.2 |  |  | Ac-[αAllylPro]D[tBuAla][B5(4)]DDAAFN[PyrS2″][Phe(2-Cl)][Bta][Leu(ol)] (staple 1-4, 4-11) [I-1080]
2 |  |  | 11.2 | 0.035 | XDLXDEAAFNXFXQA (not fully specified; N-terminal Ac; C-terminal NH2; PL3 at 1, B5 at 4, S8 at 11, BztA at 13; stapled PL3-B5 and B5-S8 by olefin metathesis, Stapled peptide; also called Ac-PL3-Asp-Leu-B5-Asp-Glu-Ala-Ala-Phe-Asn-S8-Phe-BztA-Gln-Ala-NH2) [I-730]
3 |  |  | 11.6 | 0.034 | Ac-[αAllylPro]DL[B5(17)]DEAAFN[S8]F[Bta]Q[dA]-NH2 (staple 1-4, 4-11, also called Ac-PL3-Asp-Leu-B5-Asp-Glu-Ala-Ala-Phe-Asn-S8-Phe-BztA-Gln-dAla-NH2) [I-731]
4 |  |  | 9 | 0.04 | XDLXDEAAFNXFXT (not fully specified; N-terminal Ac; C-terminal NH2; PL3 at 1, B5 at 4, S8 at 11, BztA at 13; stapled PL3-B5 and B5-S8 by olefin metathesis, Stapled peptide; also called Ac-PL3-Asp-Leu-B5-Asp-Glu-Ala-Ala-Phe-Asn-S8-Phe-BztA-Thr-NH2) [I-749]
